Laboratory results published in paper PMC10643132.

Key:
[1] = target: biotinylated Ub–CycB^N (AviTag–Ub–Cyclin B (1–88)–Cys–6xHis) (UniProt P0CG48); assay: METRIS (mechanically transduced immunosorbent assay); biotinylated APC/C (with or without CDH1) on streptavidin ferromagnetic beads rolling on streptavidin wells coated with biotinylated CycB^N, Ub–CycB^N or Ub; rotating field 1 Hz; rolling parameter (RP); relative measure; no UbV added
[2] = target: biotin–CycB^N* (AviTag–Cyclin B (1–88)–Cys–6xHis, biotinylated, Alexa488-labeled) (UniProt P14635); assay: as above
Chain of biotin–CycB^N* (AviTag–Cyclin B (1–88)–Cys–6xHis, biotinylated, Alexa488-labeled) (P14635 other isoform, or with tags, fused parts or gaps): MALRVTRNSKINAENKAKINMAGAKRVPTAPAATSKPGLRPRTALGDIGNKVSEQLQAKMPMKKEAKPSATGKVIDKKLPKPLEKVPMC

[3] = target: biotinylated Ub (biotin maleimide on an N-terminal cysteine) (UniProt P0CG48); assay: as above
[4] = target: biotinylated Ub–CycB^N (AviTag–Ub–Cyclin B (1–88)–Cys–6xHis) (UniProt P0CG48); assay: METRIS (mechanically transduced immunosorbent assay); as a7, surface of Ub–CycB^N, UbV^CDH1 added as competitor (concentration not stated)
[5] = target: biotinylated Ub (biotin maleimide on an N-terminal cysteine) (UniProt P0CG48); assay: METRIS (mechanically transduced immunosorbent assay); as a7, surface of Ub, UbV^RING and UbV^CDH1 both added as competitors (concentrations not given)

rolling parameter (RP) [1]: 0.21 | rolling parameter (RP) [2]: 0.15 | rolling parameter (RP) [3]: 0.17 | rolling parameter (RP) with UbV^CDH1 added [4]: 0.19 | rolling parameter (RP) with UbV^RING and UbV^CDH1 added [5]: 0.13
Substance: biotinylated APC/C^CDH1 (biotinylated APC/C with HaloTag, AviTag and Twin-Strep(II)-tag on APC4, incubated with CDH1 on the beads) (from UniProt Q9UJX6 1-822; P30260 1-824; Q9UJX5 1-808; Q9UJX3 1-565; Q9UJX2 1-595; Q9UM13 4-185; Q9NYG5 1-84; Q9UM11 1-496) (complex)
